Test results as given in patent publication US20160324962A1, “COMPOSITIONS AND METHODS FOR TREATING SARCOMA” (MEDIMMUNE, LLC, priority 2013, published 2016).

Legend:
TC-71 cells = experiment: Activation of caspase-3 and caspase-7; format: cell-based; details: increasing concentrations, 48 hours, compared to isotype control
Experimental: (§1) To evaluate the basis for the cytotoxic effect of MEDI-573 on RD-ES, TC-71, SJSA-1, and KHOS cells, cells were treated with increasing concentrations of MEDI-573 for 48 hours and analyzed by measuring the activation of caspase-3 and caspase-7. […] (Data not shown.)

RD-ES cells = experiment: Activation of caspase-3 and caspase-7; format: cell-based; details: increasing concentrations, 48 hours, compared to isotype control
Experimental: as §1

IGF-2 in SJSA-1 tumors = molecular target: T1, IGF-2 in SJSA-1 tumors (Homo sapiens, UniProt P01344); experiment: Free IGF ligands in xenograft tumors (ELISA); format: in vivo, mouse xenograft; details: even at the lowest dose of 10 mg/kg
T1 construct: endogenous in cells; host or cells: SJSA-1 (osteosarcoma) xenograft tumors in athymic nude mice
Experimental: (§2) Free IGF ligands were measured in xenograft tumors in untreated mice and in mice treated with different amounts of MEDI-573. […] Despite KHOS cells being unresponsive to IGF-1 and/or IGF-2 stimulation, IGF-2 levels were examined in a KHOS/NP model.
(§3) Sarcoma cell lines were purchased from American type Culture Collection (Manassas, Va.). CellTiter-Glo reagents were obtained from Promega (Madison, Wis.). Whole cell lysate kits for pIGF-1R, pIR-A, and pAKT were purchased from Meso Scale Discovery (MSD; Rockville, Md.). ELISA kits for total IGF-1 and IGF-1R were purchased from R&D Systems (Minneapolis, Minn.). ELISA kits for total IGF-2 were purchased from Insight Genomics (Falls Church, Va.). An ELISA kit for detecting free IGF-1 and IGF-2 was developed in house. Human IGF-1 and IGF-2 were obtained from R&D Systems (Minneapolis, Minn.). Antibodies for detecting phospho-AKT, phospho-4EBP1, phospho-S6K, and GAPDH were from Cell Signaling Technology (Beverly, Mass.).

[1] = molecular target: T2, human IGF-2 in KHOS/NP model (Homo sapiens, UniProt P01344); experiment: Free IGF ligands in xenograft tumors (ELISA); format: in vivo, mouse xenograft; details: up to 60 mg/kg
T2 construct: endogenous in cells; host or cells: KHOS/NP (osteosarcoma) xenograft tumors in athymic nude mice
Experimental: as §2, §3

KHOS xenograft model = experiment: Xenograft efficacy study in mice; format: in vivo; details: KHOS xenografts, MEDI-573 alone
Text: (§4) Although proliferation of SK-ES-1 and SJCRH30 cells was inhibited by MEDI-573 in vitro in the absence of exogenous IGFs, the in vivo growth of these two models was not effected by MEDI-573 treatment.
(§5) For in vivo efficacy studies, five million sarcoma cells in 50% matrigel were inoculated subcutaneously into each female athymic nude mice. When tumors reach approximately 150-200 mm^3, mice were randomly assigned into groups (10 mice per group). MEDI-573 was administrated intraperitoneally twice per week at indicated doses. The dose regimen for AZD2014 was oral once every day, for rapamycin was intraperitoneal injection every 3 days. Tumor volumes were measured twice weekly with calipers. Tumor growth inhibition was calculated on the last day of study relative to the initial and final mean tumor volume of the control group.

SK-ES-1 = experiment: Xenograft efficacy study in mice; format: in vivo; details: SK-ES-1 model
Text: as §4, §5

SJCRH30 = experiment: Xenograft efficacy study in mice; format: in vivo; details: SJCRH30 model
Text: as §4, §5

[2] = system: SJSA-1 (an osteosarcoma model) xenografts; experiment: Xenograft efficacy study in mice; format: in vivo; details: SJSA-1 xenografts, MEDI-573 alone
Text: as §4, §5

p4EBP1 = experiment: In vivo mechanism of action study, immunoblot of tumors; set-up: species or system mice
Experimental: (§6) The in vivo effects of MEDI-573 on IGF signaling were also examined in sarcoma xenografts. To be consistent with in vitro experiments, in vivo pharmacodynamic studies were performed in two ways. First, the effect of MEDI-573 on signaling that was induced by IGF ligands, which were secreted by tumors in an autocrine manner, was examined. A single dose of MEDI-573 was given to mice bearing ˜400 mm^3 RD-ES, SJSA-1, or KHOS/NP tumors.
(§7) IGF-1/-2 injection did change the baseline level of p4EBP-1.
(§8) For in vivo mechanism of action (MOA) studies, when tumors reached approximately 400 mm^3, a single dose of MEDI-573 was given. Tumor and plasma samples were collected 4 hr after dosing to assess the effect of MEDI-573 on autocrine IGF signaling. In another set of mice, 6 hr after MEDI-573 dosing, human IGF-1 or IGF-2 was injected by tail-vein. Tumor and plasma samples were collected 15 min after IGFs injection to assess the effect of MEDI-573 on IGF-1/-2 induced signaling.

pAKT = experiment: as above; set-up: species or system mice
Experimental: as §6, §7, §8

IR-A phosphorylation = experiment: pIR-A assay in sarcoma cells (MSD); format: cell-based
Experimental: When exogenous IGF-1 or IGF-2 was added to cells, there was an induction of phosphorylation of IGF-1R and IR-A in all cells examined.
The sarcoma lines were cultured overnight in complete medium. The following day, medium containing 0.1% charcoal stripped fetal bovine serum (FBS) was added to the cultures and the cultures incubated overnight. The next day, cells were treated with various treatments for 5 minutes. Media was removed; cells were washed and lysed with 1.0% Triton X lysis buffer with protease and phosphatase inhibitors. Approximately 8-20 μg of total protein was loaded on MSD 96-Well MULTI-SPOT plates and the level of total and phosphorylated IGF-1R, IR-A and IRS-1 protein was determined using the Insulin Signaling Panel (total protein) and Insulin Signaling Panel (phosphoprotein) Whole Cell Lysate kits according to the manufacturers protocol. The level of total and phosphorylated AKT was determined using the Phospho (Ser473)/Total AKT Assay Whole Cell Lysate kit according to manufacturer's standard protocol.

SJSA-1 cells = experiment: IGF-induced proliferation (CTG); format: cell-based
Experimental: (§9) To access the effect of MEDI-573 on IGF-Induced proliferation, MEDI-573 or isotype control, was added to the cells for 30 minutes at 37° C. IGF-1 or IGF-2 was then added to the appropriate wells and incubated for 3 days. Proliferation was quantified using the CTG reagent.

RD cells = experiment: IGF-induced proliferation (CTG); format: cell-based
Experimental: as §9

KHOS cells = experiment: IGF-induced proliferation (CTG); format: cell-based
Experimental: as §9

[3] = RD-ES tumors ~400 mm^3, single dose, 4 hr after dosing
[4] = RD-ES-bearing mice injected with human IGF-1/-2, MEDI-573 pretreatment

T2 sequence (P01344 25-91): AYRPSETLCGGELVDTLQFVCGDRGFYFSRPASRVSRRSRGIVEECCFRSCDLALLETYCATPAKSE
T1 sequence (P01344 25-91): as above

B1: MEDI-573: fully human monoclonal IgG2 lambda antibody that binds IGF-2 with cross reactivity to IGF-1; hybridoma 7.159.2, ATCC PTA-7424 (antibody)
heavy: QVQLVQSGAEVKKPGASVKVSCKASGYTFTSYDINWVRQATGQGLEWMGWMNPNSGNTGYAQKFQGRVTMTRNTSISTAYMELSSLRSEDTAVYYCARDPYYYYYGMDVWGQGTTVTVSSASTKGPSVFPLAPCSRSTSESTAALGCLVKDYFPEPVTVSWNSGALTSGVHTFPAVLQSSGLYSLSSVVTVPSSNFGTQTYTCNVDHKPSNTKVDKTVERKCCVECPPCPAPPVAGPSVFLFPPKPKDTLMISRTPEVTCVVVDVSHEDPEVQFNWYVDGVEVHNAKTKPREEQFNSTFRVVSVLTVVHQDWLNGKEYKCKVSNKGLPAPIEKTISKTKGQPREPQVYTLPPSREEMTKNQVSLTCLVKGFYPSDIAVEWESNGQPENNYKTTPPMLDSDGSFFLYSKLTVDKSRWQQGNVFSCSVMHEALHNHYTQKSLSLSPGK
light: QSVLTQPPSVSAAPGQKVTISCSGSSSNIENNHVSWYQQLPGTAPKLLIYDNNKRPSGIPDRFSGSKSGTSATLGITGLQTGDEADYYCETWDTSLSAGRVFGGGTKLTVLGQPKAAPSVTLFPPSSEELQANKATLVCLISDFYPGAVTVAWKADSSPVKAGVETTTPSKQSNNKYAASSYLSLTPEQWKSHRSYSCQVTHEGSTVEKTVAPTECS
For B1, the caspase-3/-7 activities (TC-71 cells) was “increased caspase-3/-7 activities in a dose-dependent manner”, the caspase-3/-7 activities (RD-ES cells) was “increased caspase-3/-7 activities in a dose-dependent manner” and the “free IGF-2 in tumors” value (IGF-2 in SJSA-1 tumors) was “almost completely neutralized”. For the same molecule, the “human IGF-2 levels in tumors” value [1] was “Dose-dependent inhibition”, the response in vivo (KHOS xenograft model) was “did not respond” and the in vivo growth (SK-ES-1) was “not effected”. For the same molecule, the in vivo growth (SJCRH30) was “not effected”, the tumor growth inhibition [2] was “Comparable results” and the “phosphorylated p4EBP1 in tumors” value (p4EBP1; KHOS/NP tumors, single dose) was “not in KHOS/NP tumors”. The “phosphorylated p4EBP1 in tumors” value (p4EBP1; [3]) was “inhibited”, the p4EBP-1 in tumors (p4EBP1; [4]) was “inhibited p4EBP-1 even below the baseline level” and the “autophosphorylation of pAKT in tumors” value (pAKT; KHOS/NP tumors, single dose) was “not in KHOS/NP tumors”. For the same molecule, the “autophosphorylation of pAKT in tumors” value (pAKT; [3]) was “inhibited autophosphorylation”, the “IGF-induced pAKT in tumors” value (pAKT; [4]) was “dramatic reduction” and the “autophosphorylation of IR-A” value (IR-A phosphorylation; KHOS cells) was “not in KHOS cells”. For the same molecule, the “autophosphorylation of IR-A” value (IR-A phosphorylation; RD-ES, TC-71, SK-ES-1, and SJSA-1 cells) was “inhibited autophosphorylation”, the “IGF-1/-2-induced activation of IR-A” value (IR-A phosphorylation; pretreatment with MEDI-573, exogenous IGF-1 or IGF-2) was “inhibited” and the “IGF-1 IC50 (μM)” value (SJSA-1 cells; SJSA-1 cells stimulated with IGF-1) was “No Induction”. The “IGF-2 IC50 (μM)” value (SJSA-1 cells; SJSA-1 cells stimulated with IGF-2) was “No Induction”, the “IGF-1 IC50 (μM)” value (RD cells; RD cells stimulated with IGF-1) was “No Induction” and the “IGF-2 IC50 (μM)” value (RD cells; RD cells stimulated with IGF-2) was “No Induction”. For the same molecule, the effect on growth (RD cells; RD cells, with or without IGF stimulation) was “failed to have any significant effect”, the “IGF-1 IC50 (μM)” value (KHOS cells; KHOS cells stimulated with IGF-1) was “No Induction” and the “IGF-2 IC50 (μM)” value (KHOS cells; KHOS cells stimulated with IGF-2) was “No Induction”. The effect on growth (KHOS cells; KHOS cells, with or without IGF stimulation) was “failed to have any significant effect”.
